Results as given in patent US20250355001A1 (GTINVENT, published 2025).
Changes are numbered by the printed parent chain. Read-outs that look alike come from different tables or passages of the source.

Key:
tau peptide 145-157 = molecular target: T1, tau peptide 145-157 (human); experiment: ELISA
T1 peptide: ADGKTKIATPRGA
Protocol: (§1) A series of binding ELISA was performed using various truncated versions of the tau protein and 13mer peptide libraries spanning the entire hT40 molecule for mapping the epitopes of anti-tau scAbs (Full list of protein antigens used is given in Table 14). In general, ELISA plates were coated with 1 μg/ml hT40 or dGA or dGAE or other truncated versions of the protein and in the case of biotinylated peptides, plates were coated with 5 μg/ml Streptavidin followed by 1 μg/ml biotinylated peptide. The plates were blocked with 2% MPBS and scAb samples added at desired starting concentrations and double diluted across the plate. Binding was detected using anti-Human C Kappa HRP conjugated secondary antibody and the resulting immunoreaction was developed and absorbance values measured as described above.

[1] = molecular target: T2, full length human tau protein 2N4R (hT40) (human, UniProt P10636 1-758); experiment: hT40 ELISA
T2 construct: recombinant; also called T441

[2] = molecular target: T2, full length human tau protein 2N4R …; experiment: SPR, hT40 immobilised, mAb analyte
Protocol: For anti-tau mAb SPR measurements, htau40 was conjugated to the surface of a CM5 sensor chip using amine coupling as explained previously. Briefly, 2 μg/mL htau40 in 10 mM Sodium acetate buffer (pH 4.0) was passed over the activated chip surface (EDC/NHS) in flow cell 2 for a period for 45 s followed by blocking with 1 M ethanolamine-HCl PH 8.5. Flow cell 1 was set up as reference control and blocked simultaneously. Final immobilisation level of htau40 (Rmax) was approximately 250 RU. […] The mAb was added for a 120 s association period and 600 s dissociation period followed by a regeneration cycle of 30 s injection of glycine buffer pH 1.5 in between each cycle. Binding responses were analysed in Biacore X100 evaluation software and data fitted to a 1:1 binding model to obtain kinetic and affinity characterisation.

[3] = molecular target: T3, human tau (hT40) with P301S and G335D of Line 66 mice (human, UniProt P10636 1-758); experiment: Western blot
T3 construct: transgene product in brain homogenate or plasma; also called L66 human tau

aggregated dGAE [4] = molecular target: T4, aggregated dGAE (human, UniProt P10636 614-708, limits assumed); experiment: capture ELISA, mAb coated at 1 µg/ml, aggregates titrated, S1G2 scAb detection
T4 construct: dGAE aggregated in vitro with DTT, 700 rpm, 37 C, 24 h; also called dGAE aggregates; dGAE agg

[5] = molecular target: T2, full length human tau protein 2N4R …; experiment: SPR, scAb captured, tau analyte
Protocol: (§2) The capture antibody was diluted 1/100 in 10 mM Sodium acetate buffer pH 5.0 and passed over the activated chip surface for a period of at least 420 s. Final ligand immobilisation levels over 12,000 RU were deemed to be satisfactory.
(§3) The scAb to be tested was added only to flow cell 2 so that flow cell 1 could act as a control to subtract any interaction with the analyte and the chip surface. […] The multi-cycle protocol was as follows-Three start-up cycles composed of an initial capture, to the desired level, of the scAb to be tested was performed followed by a 30 s injection of glycine buffer pH 2.0 after each cycle to regenerate the chip surface. […] The target was added for a 120 s association period and 420 s dissociation period followed by another regeneration, 30 s injection of glycine buffer pH 2.0 in between each cycle.
(§4) The single cycle kinetics protocol was similar and utilised the same level of scAb capture. […] In single cycle kinetics the regeneration step was performed only after the final analyte concentration was added. Binding responses were analysed in Biacore X100 evaluation software and data fitted to a 1:1 binding model to obtain kinetic and affinity characterisation.

tau fragment 369-391 = molecular target: T5, tau fragment 369-391 (human); experiment: ELISA
T5 peptide: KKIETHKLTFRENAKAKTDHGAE
Protocol: as §1

tau fragment 369-390 [6] = molecular target: T6, tau fragment 369-390 (human); experiment: direct ELISA
T6 peptide: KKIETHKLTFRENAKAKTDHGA

dGAE (tau 297-391) [7] = molecular target: T7, dGAE (tau 297-391) (human, UniProt P10636 614-708); experiment: direct ELISA
T7 construct: monomer; also called dGAE95

[8] = molecular target: T2, full length human tau protein 2N4R …; experiment: Biacore
Protocol: as §2, §3, §4

[9] = molecular target: T2, full length human tau protein 2N4R …; experiment: sandwich ELISA, S1D12 mAb capture, scAb detection
Protocol: Full length tau (hT40), at 1 μg/ml starting concentration was added to designated wells and double diluted across rest of the plates and left to incubate at R/T for 1 h. A series of detection scAbs with varying epitope recognition properties were added at 10 μg/ml to designated wells (FIG. 22). For colourimetric detection HRP conjugated anti-HuCk secondary antibody was used and the resulting immunoreaction was developed and absorbance at 450 nm measured as described previously. Cut-off point for a positive binding event was an absorbance value of 0.3 following background subtraction. In order to enhance the assay sensitivity, a chemiluminescent detection method was adopted where 50 μL SuperSignal ELISA Femto Substrate (Thermo Scientific) was added to each well following incubation with anti-HuCK HRP antibody and subsequent washing. The luminescence was read using Clariostar Plus microplate reader. A further modification to this protocol was done where various detection scAbs were directly conjugated with HRP and detected using chemiluminescent protocol as before.

dGA (tau 297-390) = dGA (tau 297-390) (human, UniProt P10636 614-707); experiment: ELISA
Protocol: as §1

mouse tau = molecular target: T8, mouse tau (mouse, UniProt P10637 2-733); experiment: Western blot of brain homogenates
T8 construct: endogenous protein of mouse brain or plasma; also called endogenous mouse tau

[10] = molecular target: T9, human tau fragment 296-390 of Line 1 mice (human, UniProt P10636 613-707); experiment: Western blot of brain homogenates
T9 construct: also called L1 fragment; 10-kDa tau fragment

dGAE (tau 297-391) [11] = molecular target: T7, dGAE (tau 297-391); experiment: direct ELISA; remark: listed apart in the source
tau fragment 369-390 [12] = molecular target: T6, tau fragment 369-390; experiment: direct ELISA
aggregated dGAE [13] = molecular target: T4, aggregated dGAE; experiment: capture ELISA, mAb coated at 1 µg/ml, S1G2 scAb detection

T2 sequence (P10636 other isoform, or with tags, fused parts or gaps limits assumed): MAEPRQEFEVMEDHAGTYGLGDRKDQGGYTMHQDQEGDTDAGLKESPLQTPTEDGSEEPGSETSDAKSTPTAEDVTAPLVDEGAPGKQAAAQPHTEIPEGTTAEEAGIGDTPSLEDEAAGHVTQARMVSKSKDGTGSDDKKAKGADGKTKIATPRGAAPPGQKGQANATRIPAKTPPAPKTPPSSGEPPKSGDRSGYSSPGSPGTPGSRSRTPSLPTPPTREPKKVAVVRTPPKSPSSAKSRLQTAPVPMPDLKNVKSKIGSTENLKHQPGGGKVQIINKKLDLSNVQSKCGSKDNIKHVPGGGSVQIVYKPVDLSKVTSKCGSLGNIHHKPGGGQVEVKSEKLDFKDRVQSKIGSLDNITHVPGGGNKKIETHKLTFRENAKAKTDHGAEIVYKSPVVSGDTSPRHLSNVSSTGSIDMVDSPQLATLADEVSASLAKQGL
T3 sequence (P10636 other isoform, or with tags, fused parts or gaps P301S G335D P301S G335D limits assumed): as the sequence (P10636 other isoform, or with tags, fused parts or gaps limits assumed) above, with P301S, G335D counted along it
T8 sequence (P10637 other isoform, or with tags, fused parts or gaps limits assumed): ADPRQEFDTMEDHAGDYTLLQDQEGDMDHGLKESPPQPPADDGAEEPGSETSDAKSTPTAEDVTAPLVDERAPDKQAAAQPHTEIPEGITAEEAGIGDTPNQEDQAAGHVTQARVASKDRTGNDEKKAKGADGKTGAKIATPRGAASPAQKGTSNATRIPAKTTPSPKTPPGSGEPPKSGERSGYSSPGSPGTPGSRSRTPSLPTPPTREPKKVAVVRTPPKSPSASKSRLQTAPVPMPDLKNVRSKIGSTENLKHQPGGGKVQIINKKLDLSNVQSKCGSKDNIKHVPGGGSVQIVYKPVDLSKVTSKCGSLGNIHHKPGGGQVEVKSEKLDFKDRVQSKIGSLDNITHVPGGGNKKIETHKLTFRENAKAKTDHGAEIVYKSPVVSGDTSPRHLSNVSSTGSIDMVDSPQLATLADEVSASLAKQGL

B1: 3aD6 scAb (scFv, not shown: small tags and cut ends)
scFv: QVQLQESGPSLVKPSQTLSLTCTVSGFSLTSNAVIWVRQAPGKAPEWVALIDVDGDAAYDPALKSRLSITRDTSKSQVSLSLRSVTTEDTAVYYCARDYGSWGYVSDIDYWGPGLLVTVSSEGKSSGASGESKVDDQAVLTQPSSVSGSLGQRVSITCSGSDIGGADVGWFQQVPGSGLRTLIYDNDNRPSGVPDRFSGSKSGNTATLTISSLQPEDEADYFCGTYSGANYGIFGSGTRLTVLG
notes: scAb
binding result (tau peptide 145-157): binds

B2: S1D9 scAb (scFv, not shown: small tags and cut ends)
scFv: QVQLQESGPSLVKPSQTLSLTCTVSGFSLTSNSVGWVRQAPGKAPEWVAGIDSDGEEGYNPALNSRLSITRDTSKNQVSLSLSRVTSEDTAVYYCGRTYRTDGYAYGYVQAIDYWGPGLLVTVSSEGKSSGASGESKVDDRVMLTQPPSVSGSPGQTVSITCSGSFIGISSVGWFQQLPGSGLRTVIFASDGRPSGVPDRFSNSKSGNTATLTISSLQAEDEADYFCGSSDRTQYTGVFGSGTRLTVLS
notes: scAb
EC50 (read off the curve) [1]: ~1 µg/mL

B3: S1D12 mAb (antibody, mouse IgG2a, V domains shown)
VH: QVQLQESGPSLVKPSQTLSLTCTVSGFSLNNNAVGWVRQAPGKVPESLVGCSSDGTCYYNSALKSRLDITRDTSKNQISLSLSSVTTDDAAVYYCTRGHYSIYGYDYLGTIDYWGPGLLVTVSS
VL: QAVLTQPSSVSGSLGQRVSITCSGSSSNVGGGNSVGWYQHLPGSGLKTIIYDTNSRPSGVPDRFSGSRSGNTATLTINSLQAEDEGDYYCVTGDSTTHDDLVGSGTRLTVLG
notes: sheep-mouse IgG2a chimeric mAb; also called S1D12 antibody; SD12
Kd [2]: 0.101 nM | koff [2]: 4.09e-05 s⁻¹ | kon [2]: 406000 M⁻¹ s⁻¹ | binding result [3]: binds | EC50 (read off the curve) (aggregated dGAE [4]): ~30 nM

B4: 3aA6 scAb (scFv, not shown: small tags and cut ends)
scFv: QVRLQESGSSLVKPSQTLSLVCTVSGFPLTSNAVGWVRQAPGKAPEWLGLIDIDGDTAYNPALESRLSITRDTSKSQVSLSLSSVAIEDTAVYYCARHYDKWGYADSIDYWGPGLLVTVSSEGKSSGASGESKVDDQALLTQPSSVFGSLGQRVSITCSGSSSNVGYGDYVGWYQQVPGSAPKLLIYDATTRASGVPDRFSGSRSGNTATLTISSLQAEDEADYYCASYQNERSGVFGSGTRLTVLG
notes: scAb
binding result (tau peptide 145-157): binds | Kd [5]: 989 nM | koff [5]: 0.0188 s⁻¹ | kon [5]: 19000 M⁻¹ s⁻¹

B5: S1G10 scAb (scFv, not shown: small tags and cut ends)
scFv: QVQLQESGPSLVKPSQTLSLTCTVSGFSLTSNSVGWVRQAPGKAPEWVAGIDTDGEEGYNPALNSRLSITRDTSKSQVSLSLSSVTSEDTAVYYCGRSYRADGLAYGYVQAIDYWGPGLLVTVSSEGKSSGASGESKVDDQAVLTQPSSMSGSLGQRVSITCSGSFIGISSVGWFQQLPGSGLRTIIVASDGRPSGVPDRFSMSKSGNTATLTISSLQAEDEADYFCGSSDRTQYTGVFGSGTRLTVLG
notes: scAb
binding result (tau fragment 369-391): binds | binding result (tau fragment 369-390 [6]): binds | EC50 (read off the curve) (dGAE (tau 297-391) [7]): ~0.9 µg/mL | Kd [8]: 0.4 nM | LoD chemiluminescence detection [9]: 0.12 ng/mL | LoD colourimetric detection [9]: 2 ng/mL

B6: S1B1 scAb (scFv, not shown: small tags and cut ends)
scFv: B5 scFv with T30S, G96V, A101T, M150V, I186V, M203N
notes: scAb
binding result (dGA (tau 297-390)): binds | binding result [1]: binds | binding result (dGAE (tau 297-391) [7]): binds

B7: CC7 mAb (antibody, mouse IgG2a, V domains shown)
VH: QVQLQESGPSLVKPSQTLSLTCTVSGFSLTSNAVIWVRQAPGKAPEWVALIDVDGDAAYDPALKSRLSITRDTSKSQVSLSLRSVTTEDTAVYYCARDYGSWGYVSDIDYWGPGLLVTVSS
VL: RVVRTQPSSVSGSLGQRVSITCSGSYITGSSVGWFQQVPGSGLKTVIYDNNDRPSGVPDRFSGSKSGDTATLTISSLQAEDEADYYCASYDTSNIGLFGSGTRLTVLG
notes: sheep-mouse IgG2a chimeric mAb; also called CC7 antibody
Kd [2]: 6.9 nM | koff [2]: 0.0316 s⁻¹ | kon [2]: 4.58e+06 M⁻¹ s⁻¹ | binding result [3]: binds | binding result (mouse tau): no binding | binding result [10]: no binding

B8: S2C6 scAb (scFv, not shown: small tags and cut ends)
scFv: QVQLQESGPSLVKPSQTLSLTCTVSGFSLISNSVGWVRQAPGKAPEWVAGIDTDGEEGYNPALKSQYAASDPDTSKSQVSLSLSSVTSEDTAVYYCGRTYRTDGFAYGYVQAIDYWGPGLLLTISSEGKSSGASGESKVDDQAVLTQPSSVSGSLGQRVSITCSGSFIGISSVGWFQQLPGSGLRTIIVASDGRPSGVPDRFSMSKSGNTATLTISSLQAEDEADYFCGSSDRTQYTGVFGSGTRLTVLG
notes: scAb
EC50 (read off the curve) (dGAE (tau 297-391) [11]): ~0.8 µg/mL | EC50 (read off the curve) (tau fragment 369-390 [12]): ~2 µg/mL

B9: CA4 mAb (antibody, mouse IgG2a, V domains shown)
VH: QVQLQESGPSLVKPSQTLSLTCTVSGFSLTSYSVYWVRQAPGQALEWISIMYASGRVDYNPALKSRLSITRDTSKSQFSLSLSSVTTEDTAVYYCTRGIENWGPGLLVTVSS
VL: DIQVTQSPSSLSASLTERVSITCRTSQSVNNYLSWYQQKPGQAPKLLIYYATRLYTDVPSRFSGSGSGTDYTLTITSLEADDTATYYCLQYDSTPLAFGGGTNVEIKG
notes: sheep-mouse IgG2a chimeric mAb; also called CA4 antibody
Kd [2]: 1.3 nM | koff [2]: 0.00128 s⁻¹ | kon [2]: 1.02e+06 M⁻¹ s⁻¹ | binding result (aggregated dGAE [13]): no binding (tested: 800 nM)

B10: E2E8 mAb (antibody, mouse IgG2a, V domains shown)
VH: QVQLQESGPSLVKPSQTLSLTCTVSGFSLTDRGVAWVRQAPGKALEWVGTMRSGGTIDYNPALKSRLSITRDTSKSQVFLSLSSVTTEDMAMYYCARGYLSGDRYAWGRGLLVTVSS
VL: QAVLTQPSSVSKSLGQSVSIACSGSRSDIGYGNYVSWFQQIPGSAPKLLIYDTNTRASGVPDRFSGARSGNTATLTINSLQAEDEADYYCANIDSSRSHLFGSGTRLTVLG
notes: sheep-mouse IgG2a chimeric mAb
EC50 (read off the curve) (aggregated dGAE [4]): ~80 nM
